From patent US20080085266A1

Target: ICAM-1 (human) (UniProt P05362)
Assay: cell-based or functional assay

Sequence of ICAM-1 (human) (P05362 28-532): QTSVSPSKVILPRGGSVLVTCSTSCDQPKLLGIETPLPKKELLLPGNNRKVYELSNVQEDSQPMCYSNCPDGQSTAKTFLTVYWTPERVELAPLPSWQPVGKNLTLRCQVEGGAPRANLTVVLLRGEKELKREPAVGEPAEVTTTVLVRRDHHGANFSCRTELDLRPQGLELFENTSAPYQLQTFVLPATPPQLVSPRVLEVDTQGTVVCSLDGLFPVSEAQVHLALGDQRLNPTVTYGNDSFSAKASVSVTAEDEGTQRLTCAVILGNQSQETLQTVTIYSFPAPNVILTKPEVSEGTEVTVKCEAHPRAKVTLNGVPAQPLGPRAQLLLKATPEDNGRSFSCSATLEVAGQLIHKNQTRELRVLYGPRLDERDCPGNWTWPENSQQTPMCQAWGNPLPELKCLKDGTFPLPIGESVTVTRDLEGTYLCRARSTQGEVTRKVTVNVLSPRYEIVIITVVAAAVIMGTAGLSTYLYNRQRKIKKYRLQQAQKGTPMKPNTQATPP

## CD11a (LFA-1) (from UniProt P20701 26-1170) (receptor)
  inhibition of tumor lysis by peptide specific CTLs with anti-CD11a (LFA-1) MAb, tumor cells after IFN-gamma exposure: 60 to 86%
